IntAct's records for PubMed 35512704

B1: Mothers against decapentaplegic homolog 4 (Homo sapiens), Q13485 (parent)
chain: MDNMSITNTPTSNDACLSIVHSLMCHRQGGESETFAKRAIESLVKKLKEKKDELDSLITAITTNGAHPSKCVTIQRTLDGRLQVAGRKGFPHVIYARLWRWPDLHKNELKHVKYCQYAFDLKCDSVCVNPYHYERVVSPGIDLSGLTLQSNAPSSMMVKDEYVHDFEGQPSLSTEGHSIQTIQHPPSNRASTETYSTPALLAPSESNATSTANFPNIPVASTSQPASILGGSHSEGLLQIASGPQPGQQQNGFTGQPATYHHNSTTTWTGSRTAPYTPNLPHHQNGHLQHHPPMPPHPGHYWPVHNELAFQPPISNHPAPEYWCSIAYFEMDVQVGETFKVPSSCPIVTVDGYVDPSGGDRFCLGQLSNVHRTEAIERARLHIGKGVQLECKGEGDVWVRCLSDHAVFVQSYYLDREAGRAPGDAVHKIYPSAYIKVFDLRQCHRQMQQQAATAQAAAAAQAAAVAGNIPGPGSVGGIAPAISLSAAAGIGVDDLRRLCILRMSFVKGWGPDYPRQSIKETPCWIEIHLHRALQLLDEVLHTMPIADPQPLD
partner: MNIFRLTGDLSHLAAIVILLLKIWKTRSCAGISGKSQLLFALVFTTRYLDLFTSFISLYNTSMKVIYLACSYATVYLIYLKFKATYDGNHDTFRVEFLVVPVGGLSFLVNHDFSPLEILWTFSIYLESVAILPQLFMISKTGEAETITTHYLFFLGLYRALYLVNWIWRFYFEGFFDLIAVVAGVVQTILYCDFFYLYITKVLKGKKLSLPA
B2: Mothers against decapentaplegic homolog 4 (Homo sapiens), Q13485 (parent)
chain: B1 chain
partner: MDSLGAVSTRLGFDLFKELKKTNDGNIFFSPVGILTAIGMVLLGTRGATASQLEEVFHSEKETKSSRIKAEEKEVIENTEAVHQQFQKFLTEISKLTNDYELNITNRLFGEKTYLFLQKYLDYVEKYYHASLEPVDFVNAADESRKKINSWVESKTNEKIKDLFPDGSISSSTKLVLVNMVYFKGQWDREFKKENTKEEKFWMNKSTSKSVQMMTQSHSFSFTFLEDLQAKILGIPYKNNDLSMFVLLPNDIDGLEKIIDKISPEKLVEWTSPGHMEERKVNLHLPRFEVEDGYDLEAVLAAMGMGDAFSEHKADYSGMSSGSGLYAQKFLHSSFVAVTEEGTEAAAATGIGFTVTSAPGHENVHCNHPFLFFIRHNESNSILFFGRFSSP
B3: Mothers against decapentaplegic homolog 4 (Homo sapiens), Q13485 (parent)
chain: B1 chain
partner: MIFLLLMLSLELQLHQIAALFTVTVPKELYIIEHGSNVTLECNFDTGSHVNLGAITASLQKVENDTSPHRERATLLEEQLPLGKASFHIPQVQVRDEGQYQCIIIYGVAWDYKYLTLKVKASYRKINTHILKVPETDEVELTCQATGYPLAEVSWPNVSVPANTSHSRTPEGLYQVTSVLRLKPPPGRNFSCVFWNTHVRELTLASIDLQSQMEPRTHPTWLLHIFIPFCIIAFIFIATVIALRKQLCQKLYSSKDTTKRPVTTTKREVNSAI
B4: Mothers against decapentaplegic homolog 4 (Homo sapiens), Q13485 (parent)
chain: B1 chain
partner: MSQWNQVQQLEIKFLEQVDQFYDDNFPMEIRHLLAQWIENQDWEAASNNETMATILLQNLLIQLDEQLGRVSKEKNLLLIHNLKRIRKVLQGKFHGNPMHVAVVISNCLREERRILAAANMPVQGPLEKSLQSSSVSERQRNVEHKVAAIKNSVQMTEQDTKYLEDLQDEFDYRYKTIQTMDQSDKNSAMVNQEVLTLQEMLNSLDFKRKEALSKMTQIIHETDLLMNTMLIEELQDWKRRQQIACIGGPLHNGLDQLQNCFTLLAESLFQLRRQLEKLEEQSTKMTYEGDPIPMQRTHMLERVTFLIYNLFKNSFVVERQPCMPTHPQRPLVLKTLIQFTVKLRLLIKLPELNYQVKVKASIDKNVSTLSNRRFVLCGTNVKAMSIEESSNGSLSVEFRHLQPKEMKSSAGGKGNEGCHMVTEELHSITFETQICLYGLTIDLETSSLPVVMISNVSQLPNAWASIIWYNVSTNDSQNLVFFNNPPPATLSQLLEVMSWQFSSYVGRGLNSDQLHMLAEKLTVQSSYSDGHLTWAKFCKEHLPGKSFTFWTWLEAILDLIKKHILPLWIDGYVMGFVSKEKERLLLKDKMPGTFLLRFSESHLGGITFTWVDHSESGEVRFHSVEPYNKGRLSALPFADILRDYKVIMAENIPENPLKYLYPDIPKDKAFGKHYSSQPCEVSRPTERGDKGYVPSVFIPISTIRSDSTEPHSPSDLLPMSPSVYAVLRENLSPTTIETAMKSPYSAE

Variants of: B1
Conditions: with erd22_human KDELR2, P33947

| Variant | effect of a mutation on the interaction |
| --- | --- |
| R361H | with no effect |

Variants of: B1
Conditions: with erd22_human KDELR2, P33947
Remark: another data set of the same source

| Variant | effect of a mutation on the interaction |
| --- | --- |
| G386D | with no effect |

Variants of: B2
Conditions: with spb13_human SERPINB13, Q9UIV8

| Variant | effect of a mutation on the interaction |
| --- | --- |
| R361H | with no effect |

Variants of: B2
Conditions: with spb13_human SERPINB13, Q9UIV8
Remark: another data set of the same source

| Variant | effect of a mutation on the interaction |
| --- | --- |
| R361C | with no effect |

Variants of: B2
Conditions: with spb13_human SERPINB13, Q9UIV8
Remark: another data set of the same source

| Variant | effect of a mutation on the interaction |
| --- | --- |
| D351H | with no effect |

Variants of: B2
Conditions: with spb13_human SERPINB13, Q9UIV8
Remark: another data set of the same source

| Variant | effect of a mutation on the interaction |
| --- | --- |
| G386D | with no effect |

Variants of: B3
Conditions: with pd1l2_human PDCD1LG2, Q9BQ51

| Variant | effect of a mutation on the interaction |
| --- | --- |
| D351H | with no effect |

Variants of: B3
Conditions: with pd1l2_human PDCD1LG2, Q9BQ51
Remark: another data set of the same source

| Variant | effect of a mutation on the interaction |
| --- | --- |
| G386D | with no effect |

Variants of: B4
Conditions: with stat4_human STAT4, Q14765

| Variant | effect of a mutation on the interaction |
| --- | --- |
| D351H | with no effect |

Variants of: B4
Conditions: with stat4_human STAT4, Q14765
Remark: another data set of the same source

| Variant | effect of a mutation on the interaction |
| --- | --- |
| R361C | with no effect |

Variants of: B4
Conditions: with stat4_human STAT4, Q14765
Remark: another data set of the same source

| Variant | effect of a mutation on the interaction |
| --- | --- |
| R361H | with no effect |

Variants of: B4
Conditions: with stat4_human STAT4, Q14765
Remark: another data set of the same source

| Variant | effect of a mutation on the interaction |
| --- | --- |
| G386D | with no effect |
